This is an account of results in patent US20210332115A1 (Sanofi, published 2021).

Broadly, the Kd is the free concentration of one partner at which half of the binding sites on the other are occupied at equilibrium, for simple one-to-one binding. Low values mean a tighter complex, high ones a looser complex. The term koff denotes a measure of how fast the partners let go of each other. In general, kon refers to the second-order rate constant of association.

The target of assay [1] is T1, Homo sapiens factor Bb protein (human, UniProt P00751 260-764).
T1 construct: Bought from CompTech (A155); also called complement factor Bb; human factor Bb
As to the kind of experiment: SPR single cycle kinetics; ratio against VH0/Vκ0. The protocol: (§1) In order to assess the binding of all humanized variants, single cycle kinetic analysis was performed on supernatants from transfected cell cultures. […] All single cycle kinetic experiments were run at 25° C. with HBS-P+running buffer (pH 7. 4) (GE Healthcare, Little Chalfont, UK).
(§2) Antibodies were diluted in running buffer to a final concentration of 1 μg/ml, based on concentrations assessed by ELISA titer. At the start of each cycle, antibodies were loaded onto Fc2, Fc3 and Fc4 of the Protein A chip (GE Healthcare, Little Chalfont, UK). IgGs were captured at a flow rate of 10 μl/min to give an immobilization level (RL) of ˜63 RU, the theoretical value to obtain an Rmax of ˜50 RU. The surface was then allowed to stabilize. Single cycle kinetic data was obtained with factor Bb (CompTech, Tyler, USA) as the analyte at a flow rate of 30 μl/min to minimize any potential mass transport limitations. Multiple repeats with the reference chimeric antibody were performed to check the stability of the surface and analyte over the kinetic cycles. The signal from the reference channel Fc1 (no antibody) was subtracted from that of Fc2, Fc3 and Fc4 to correct for differences in non-specific binding to a reference surface. A four point, two-fold dilution range from 0. 78 nM to 6. 25 nM factor Bb without regeneration between each concentration was used. The association phase for the four injections of increasing concentrations of factor Bb was monitored for 200 seconds each time and a single dissociation phase was measured for 200 seconds following the last injection of factor Bb. Regeneration of the Protein A surface was conducted using two injections of 10 mM glycine-HCL pH 1. 5.
(§3) The sensorgrams and fitted data for the single cycle kinetics are shown in FIGS. 1A-1D and the kinetic parameters measured for the interaction of factor Bb with each antibody are shown in Table 7. The relative KD was calculated by dividing the KD of the VH0/Vκ0 reference antibody by that of the humanized variant assayed in the same experiment.

Assay [2] has as its target T1, Homo sapiens factor Bb protein. As to the kind of experiment: SPR single cycle kinetics, IgG on Protein A chip, factor Bb analyte. The method, then:
as §1, §2, §3

T1 sequence (P00751 260-764 limits assumed): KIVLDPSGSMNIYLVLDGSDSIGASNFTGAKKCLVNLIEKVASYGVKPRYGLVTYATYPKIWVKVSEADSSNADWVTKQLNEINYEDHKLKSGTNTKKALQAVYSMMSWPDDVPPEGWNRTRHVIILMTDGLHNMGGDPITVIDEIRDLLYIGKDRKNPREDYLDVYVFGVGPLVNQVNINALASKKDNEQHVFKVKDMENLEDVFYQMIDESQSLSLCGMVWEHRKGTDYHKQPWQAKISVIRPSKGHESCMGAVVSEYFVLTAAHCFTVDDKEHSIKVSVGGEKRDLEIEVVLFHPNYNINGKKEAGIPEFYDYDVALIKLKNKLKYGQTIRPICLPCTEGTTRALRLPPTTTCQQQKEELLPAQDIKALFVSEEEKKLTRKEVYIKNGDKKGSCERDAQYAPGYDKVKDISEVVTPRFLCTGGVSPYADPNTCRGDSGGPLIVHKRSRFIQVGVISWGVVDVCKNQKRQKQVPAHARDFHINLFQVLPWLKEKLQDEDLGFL

B1: VH1/Vκ2 (antibody, V domains shown)
VH: EVQLVESGGGLVKPGGSLRLSCAASGFTFSNYAMSWVRQAPGKGLEWVATISNRGSYTYYPDSVKGRFTISRDNAKNSLYLQMSSLRSEDTALYYCARERPMDYWGQGTSVTVSS
VL: DIVMTQSPSTLSASVGDRVTITCKASQDVGTAVAWYQQKPGQPPKLLIYWASTRHTGVPDRFTGSGSGTDFTLTISSLQAEDFAVYFCHQHSSNPLTFGQGTKLEIK
As for B1, in assay [1], the “Relative KD” value stood at 2.97. Further, in assay [2], the Kd is 5.22 nM, the koff is 0.00251 s⁻¹ and the kon was found to be 481000 M⁻¹ s⁻¹.

B2: VH3/Vκ1 (antibody, V domains shown)
VH: EVQLVESGGGLVKPGGSLRLSCAASGFTFSNYAMSWVRQAPGKGLEWVATISNRGSYTYYADSVKGRFTISRDNAKNSLYLQMNSLRAEDTALYYCARERPMDYWGQGTLVTVSS
VL: DIVMTQSPSFLSASVGDRVTITCKASQDVGTAVAWYQQKPGQPPKLLIYWASTRHTGVPDRFTGSGSGTDFTLTISSLQSEDFAVYFCHQHSSNPLTFGQGTKLEIK
On to B2, for which the “Relative KD” value in assay [1] is 7.9. For the same molecule, in assay [2], the Kd came out at 13.9 nM, the koff is 0.00404 s⁻¹ and the kon stood at 291000 M⁻¹ s⁻¹.

B3: VH2/Vκ1 (antibody, V domains shown)
VH: EVQLVESGGGLVKPGGSLRLSCAASGFTFSNYAMSWVRQAPGKGLEWVATISNRGSYTYYPDSVKGRFTISRDNAKNSLYLQMNSLRAEDTALYYCARERPMDYWGQGTLVTVSS
VL: DIVMTQSPSFLSASVGDRVTITCKASQDVGTAVAWYQQKPGQPPKLLIYWASTRHTGVPDRFTGSGSGTDFTLTISSLQSEDFAVYFCHQHSSNPLTFGQGTKLEIK
For the molecule B3, the “Relative KD” value in assay [1] came to 11.8. In assay [2], binding was put at a Kd of 20.7 nM, the off-rate constant (koff) came out at 0.00373 s⁻¹ and the kon came to 180000 M⁻¹ s⁻¹.

B4: VH2/Vκ2 (antibody, V domains shown)
VH: EVQLVESGGGLVKPGGSLRLSCAASGFTFSNYAMSWVRQAPGKGLEWVATISNRGSYTYYPDSVKGRFTISRDNAKNSLYLQMNSLRAEDTALYYCARERPMDYWGQGTLVTVSS
VL: DIVMTQSPSTLSASVGDRVTITCKASQDVGTAVAWYQQKPGQPPKLLIYWASTRHTGVPDRFTGSGSGTDFTLTISSLQAEDFAVYFCHQHSSNPLTFGQGTKLEIK
Regarding B4, the “Relative KD” value in assay [1] came out at 7.9. In assay [2], this molecule gave a Kd of 13.9 nM, a koff of 0.00326 s⁻¹ and a kon of 234000 M⁻¹ s⁻¹.

B5: VH2/Vκ3 (antibody, V domains shown)
VH: EVQLVESGGGLVKPGGSLRLSCAASGFTFSNYAMSWVRQAPGKGLEWVATISNRGSYTYYPDSVKGRFTISRDNAKNSLYLQMNSLRAEDTALYYCARERPMDYWGQGTLVTVSS
VL: DIQMTQSPSTLSASVGDRVTITCKASQDVGTAVAWYQQKPGQPPKLLIYWASTRHTGVPDRFSGSGSGTDFTLTISSLQAEDFAVYFCHQHSSNPLTFGQGTKLEIK
B5: the “Relative KD” value in assay [1] stood at 6.93. Also, in assay [2], binding was put at a Kd of 12.2 nM, the koff turned out to be 0.00307 s⁻¹ and the kon worked out at 252000 M⁻¹ s⁻¹.

B6: VH2/Vκ4 (antibody, V domains shown)
VH: EVQLVESGGGLVKPGGSLRLSCAASGFTFSNYAMSWVRQAPGKGLEWVATISNRGSYTYYPDSVKGRFTISRDNAKNSLYLQMNSLRAEDTALYYCARERPMDYWGQGTLVTVSS
VL: DIQMTQSPSTLSASVGDRVTITCRASQDVGTAVAWYQQKPGQPPKLLIYWASTRHTGVPDRFSGSGSGTDFTLTISSLQAEDFAVYYCHQHSSNPLTFGQGTKLEIK
Take B6: the “Relative KD” value in assay [1] was 6.19. Further, in assay [2], the Kd is 10.9 nM, the koff was found to be 0.00368 s⁻¹ and the kon was determined as 339000 M⁻¹ s⁻¹.

B7: VH1/Vκ1 (antibody, V domains shown)
VH: EVQLVESGGGLVKPGGSLRLSCAASGFTFSNYAMSWVRQAPGKGLEWVATISNRGSYTYYPDSVKGRFTISRDNAKNSLYLQMSSLRSEDTALYYCARERPMDYWGQGTSVTVSS
VL: DIVMTQSPSFLSASVGDRVTITCKASQDVGTAVAWYQQKPGQPPKLLIYWASTRHTGVPDRFTGSGSGTDFTLTISSLQSEDFAVYFCHQHSSNPLTFGQGTKLEIK
For B7, the “Relative KD” value in assay [1] was determined as 2.85. In assay [2], this molecule registered a Kd of 5.01 nM, a koff of 0.00287 s⁻¹ and a kon of 574000 M⁻¹ s⁻¹.

B8: VH2/Vκ5 (antibody, V domains shown)
VH: EVQLVESGGGLVKPGGSLRLSCAASGFTFSNYAMSWVRQAPGKGLEWVATISNRGSYTYYPDSVKGRFTISRDNAKNSLYLQMNSLRAEDTALYYCARERPMDYWGQGTLVTVSS
VL: DIQMTQSPSTLSASVGDRVTITCRASQDVGTAVAWYQQKPGQPPKLLIYWASTRHTGVPDRFSGSGSGTDFTLTISSLQAEDFATYYCHQHSSNPLTFGQGTKLEIK
With B8, in assay [1], the “Relative KD” value is 9.43. In assay [2], this molecule gave a Kd of 16.6 nM, a koff of 0.00375 s⁻¹ and a kon of 225000 M⁻¹ s⁻¹.

B9: VH0/Vκ1 (control) (antibody, V domains shown)
VH: EVQLVESGGALVKPGGSLKLSCAASGFTFSNYAMSWVRQTPEKRLEWVATISNRGSYTYYPDSVKGRFTISRDNAKNTLYLQMSSLRSEDTALYYCARERPMDYWGQGTSVTVSS
VL: DIVMTQSPSFLSASVGDRVTITCKASQDVGTAVAWYQQKPGQPPKLLIYWASTRHTGVPDRFTGSGSGTDFTLTISSLQSEDFAVYFCHQHSSNPLTFGQGTKLEIK
With B9, the “Relative KD” value in assay [1] was found to be 1.52. In assay [2], binding was characterised by a dissociation constant (Kd) of 2.68 nM, the koff amounted to 0.00157 s⁻¹ and the kon is 586000 M⁻¹ s⁻¹.

B10: VH3/Vκ3 (antibody, V domains shown)
VH: EVQLVESGGGLVKPGGSLRLSCAASGFTFSNYAMSWVRQAPGKGLEWVATISNRGSYTYYADSVKGRFTISRDNAKNSLYLQMNSLRAEDTALYYCARERPMDYWGQGTLVTVSS
VL: DIQMTQSPSTLSASVGDRVTITCKASQDVGTAVAWYQQKPGQPPKLLIYWASTRHTGVPDRFSGSGSGTDFTLTISSLQAEDFAVYFCHQHSSNPLTFGQGTKLEIK
B10: in assay [1], the “Relative KD” value worked out at 8.47. In assay [2], this molecule displayed a Kd of 14.9 nM, a koff of 0.00329 s⁻¹ and a kon of 220000 M⁻¹ s⁻¹.

B11: VH1/Vκ5 (antibody, V domains shown)
VH: EVQLVESGGGLVKPGGSLRLSCAASGFTFSNYAMSWVRQAPGKGLEWVATISNRGSYTYYPDSVKGRFTISRDNAKNSLYLQMSSLRSEDTALYYCARERPMDYWGQGTSVTVSS
VL: DIQMTQSPSTLSASVGDRVTITCRASQDVGTAVAWYQQKPGQPPKLLIYWASTRHTGVPDRFSGSGSGTDFTLTISSLQAEDFATYYCHQHSSNPLTFGQGTKLEIK
Consider B11, for which, in assay [1], the “Relative KD” value was 5.09. In addition, in assay [2], the Kd is 8.96 nM, the koff is 0.00201 s⁻¹ and the kon stood at 225000 M⁻¹ s⁻¹.

B12: VH1/Vκ4 (antibody, V domains shown)
VH: EVQLVESGGGLVKPGGSLRLSCAASGFTFSNYAMSWVRQAPGKGLEWVATISNRGSYTYYPDSVKGRFTISRDNAKNSLYLQMSSLRSEDTALYYCARERPMDYWGQGTSVTVSS
VL: DIQMTQSPSTLSASVGDRVTITCRASQDVGTAVAWYQQKPGQPPKLLIYWASTRHTGVPDRFSGSGSGTDFTLTISSLQAEDFAVYYCHQHSSNPLTFGQGTKLEIK
For the molecule B12, in assay [1], the “Relative KD” value is 3.7. For the same molecule, in assay [2], the Kd was determined as 6.52 nM, the koff came to 0.00294 s⁻¹ and the kon stood at 451000 M⁻¹ s⁻¹.

B13: VH3/Vκ2 (antibody, V domains shown)
VH: EVQLVESGGGLVKPGGSLRLSCAASGFTFSNYAMSWVRQAPGKGLEWVATISNRGSYTYYADSVKGRFTISRDNAKNSLYLQMNSLRAEDTALYYCARERPMDYWGQGTLVTVSS
VL: DIVMTQSPSTLSASVGDRVTITCKASQDVGTAVAWYQQKPGQPPKLLIYWASTRHTGVPDRFTGSGSGTDFTLTISSLQAEDFAVYFCHQHSSNPLTFGQGTKLEIK
For the molecule B13, in assay [1], the “Relative KD” value worked out at 9.09. In assay [2], the Kd stood at 16 nM, the koff is 0.00377 s⁻¹ and the kon is 236000 M⁻¹ s⁻¹.

B14: VH1/Vκ3 (antibody, V domains shown)
VH: EVQLVESGGGLVKPGGSLRLSCAASGFTFSNYAMSWVRQAPGKGLEWVATISNRGSYTYYPDSVKGRFTISRDNAKNSLYLQMSSLRSEDTALYYCARERPMDYWGQGTSVTVSS
VL: DIQMTQSPSTLSASVGDRVTITCKASQDVGTAVAWYQQKPGQPPKLLIYWASTRHTGVPDRFSGSGSGTDFTLTISSLQAEDFAVYFCHQHSSNPLTFGQGTKLEIK
Regarding B14, the “Relative KD” value in assay [1] stood at 2.22. Besides, in assay [2], the affinity, expressed as Kd, was 3.9 nM; the koff worked out at 0.00263 s⁻¹; the kon worked out at 675000 M⁻¹ s⁻¹.

B15: VH3/Vκ4 (antibody, V domains shown)
VH: EVQLVESGGGLVKPGGSLRLSCAASGFTFSNYAMSWVRQAPGKGLEWVATISNRGSYTYYADSVKGRFTISRDNAKNSLYLQMNSLRAEDTALYYCARERPMDYWGQGTLVTVSS
VL: DIQMTQSPSTLSASVGDRVTITCRASQDVGTAVAWYQQKPGQPPKLLIYWASTRHTGVPDRFSGSGSGTDFTLTISSLQAEDFAVYYCHQHSSNPLTFGQGTKLEIK
For the molecule B15, in assay [1], the “Relative KD” value came out at 9.83. Further, in assay [2], binding was characterised by a dissociation constant (Kd) of 17.3 nM, the koff stood at 0.0046 s⁻¹ and the kon turned out to be 267000 M⁻¹ s⁻¹.
